Laboratory results as given in the supplement of paper PMC10724198.
± gives the standard deviation of the averaged measurements.

Columns and labels:
Saccharomyces cerevisiae [1] = experiment: protein stability index of tFT-peptide fusion (C-terminal peptide) (PSI (0-1 scale)); higher = more stable (slower turnover)
Experimental: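 MPS profiling in S. cerevisiae of the tFT-X12 degron library: putative degron peptides plus stable controls, 12 aa, fused to the C-terminus of a sfGFP-mCherry timer. Cells are FACS-sorted into 8 mCherry/sfGFP bins and deep-sequenced. PSI runs from 0 (unstable) to 1 (stable). Backgrounds are wild type, das1Δ and doa10Δ at 30 °C, and wild type, das1Δ, cdc34-1 and cdc53-1 at 37 °C; 2-3 technical replicates each.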

Saccharomyces cerevisiae [2] = experiment: as above; details: genetic background: wild type; temperature: 30 C
[3] = genetic background: cdc34-1, temperature: 37 C
[4] = genetic background: cdc53-1, temperature: 37 C
[5] = genetic background: das1 deletion, temperature: 30 C
[6] = genetic background: das1 deletion, temperature: 37 C
[7] = genetic background: doa10 deletion, temperature: 30 C
[8] = genetic background: wild type, temperature: 30 C
[9] = genetic background: wild type, temperature: 37 C
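Note: PSI is a weighted mean of sequencing reads over stability bins, variants kept only with over 10 reads, mCherry proximal and sfGFP distal, peptide attached via GGGS linker.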

Sequence	protein stability index (Saccharomyces cerevisiae [1]; [3])	protein stability index (Saccharomyces cerevisiae [1]; [4])	protein stability index (Saccharomyces cerevisiae [1]; [5])	protein stability index (Saccharomyces cerevisiae [1]; [6])	protein stability index (Saccharomyces cerevisiae [1]; [7])	protein stability index (Saccharomyces cerevisiae [1]; [8])	protein stability index (Saccharomyces cerevisiae [1]; [9])	protein stability index (Saccharomyces cerevisiae [2])
DAIVLGSVVVCR	0.515 ± 0.032	0.563 ± 0.017	0.393 ± 0.029	0.5719 ± 0.0051	0.342 ± 0.0065	0.39 ± 0.038	0.55 ± 0.013	0.414 ± 0.026
DCRFIIFYCVMV	0.48 ± 0.022	0.5 ± 0.019	0.434 ± 0.053	0.509 ± 0.019	0.454 ± 0.06	0.454 ± 0.037	0.506 ± 0.019	0.457 ± 0.029
DDESLVGRWRKV	0.647 ± 0.011	0.7263 ± 0.00098	0.6402 ± 0.0045	0.738 ± 0.011	0.25 ± 0.0057	0.313 ± 0.014	0.547 ± 0.019	0.365 ± 0.11
DFPGDIILRLIA	0.576 ± 0.041	0.748 ± 0.044	0.635 ± 0.014	0.728 ± 0.025	0.139 ± 0.0097	0.155 ± 0.0082	0.214 ± 0.069	0.207 ± 0.11
DLAWAIGRLTKG	0.72 ± 0.02	0.769 ± 0.033	0.654 ± 0.029	0.761 ± 0.016	0.653 ± 0.011	0.652 ± 0.0094	0.743 ± 0.013	0.568 ± 0.2
DLPKAYCIEMIG	0.6033 ± 0.0055	0.718 ± 0.015	0.613 ± 0.034	0.7187 ± 0.005	0.198 ± 0.029	0.215 ± 0.023	0.432 ± 0.02	0.328 ± 0.027
DNLYSLEFMAIR	0.719 ± 0.04	0.78 ± 0.016	0.647 ± 0.021	0.7875 ± 0.0042	0.655 ± 0.025	0.645 ± 0.012	0.7796 ± 0.004	0.566 ± 0.19
DPPRPIMRIHMI	0.553 ± 0.065	0.651 ± 0.042	0.671 ± 0.059	0.719 ± 0.016	0.115 ± 0.021	0.111 ± 0.015	0.171 ± 0.027	0.181 ± 0.0027
DSPRGRCVRLLV	0.66041 ± 1.4e-06	0.74745 ± 0.00025	0.646 ± 0.013	0.741 ± 0.017	0.253 ± 0.0077	0.308 ± 0.0036	0.599 ± 0.067	0.398 ± 0.03
DWCACFFILLLA	0.0391 ± 0.0052	0.0382 ± 0.012	0.117 ± 0.026	0.17 ± 0.016	0.145 ± 0.0095	0.0983 ± 0.018	0.111 ± 0.028	0.152 ± 0.019
DWTVSYLWVTAL	0.534 ± 0.042	0.592 ± 0.019	0.469 ± 0.025	0.599 ± 0.006	0.185 ± 0.0044	0.208 ± 0.0091	0.385 ± 0.02	0.331 ± 0.015
ECCKRFCCRFVA	0.627 ± 0.038	0.6982 ± 0.0042	0.644 ± 0.0065	0.73 ± 0.018	0.231 ± 0.0082	0.256 ± 0.021	0.4002 ± 0.0022	0.338 ± 0.044
EERKIFLKVVKV	0.545 ± 0.036	0.496 ± 0.016	0.398 ± 0.025	0.5748 ± 0.0007	0.218 ± 0.021	0.305 ± 0.027	0.4656 ± 0.0028	0.463 ± 0.0094
EGGLGDRLLGVG	0.526 ± 0.035	0.577 ± 0.0092	0.501 ± 0.0078	0.573 ± 0.021	0.5161 ± 0.0024	0.518 ± 0.016	0.547 ± 0.0066	0.47 ± 0.015
EMISRNVFTYLS	0.684 ± 0.037	0.755 ± 0.012	0.619 ± 0.034	0.773 ± 0.023	0.394 ± 0.034	0.42 ± 0.023	0.6266 ± 0.0049	0.473 ± 0.03
EMPRLSKAIRVT	0.5407 ± 0.00036	0.5702 ± 0.0053	0.371 ± 0.026	0.603 ± 0.011	0.279 ± 0.0047	0.314 ± 0.028	0.4961 ± 0.0028	0.44 ± 0.029
EVGTMALISCSV	0.3854 ± 0.001	0.356 ± 0.084	0.319 ± 0.05	0.458 ± 0.022	0.252 ± 0.019	0.288 ± 0.034	0.427 ± 0.039	0.428 ± 0.034
EWSRVVRWNWDG	0.528 ± 0.046	0.69857 ± 0.00044	0.637 ± 0.011	0.707 ± 0.0084	0.121 ± 0.0082	0.148 ± 0.014	0.266 ± 0.015	0.254 ± 0.027
FALVSLSFALVE	0.4203 ± 0.00048	0.457 ± 0.019	0.306 ± 0.025	0.518 ± 0.0066	0.28 ± 0.0036	0.292 ± 0.036	0.472 ± 0.02	0.379 ± 0.034
FAVHHLRYILLV	0.227 ± 0.029	0.325 ± 0.019	0.316 ± 0.024	0.436 ± 0.0073	0.0929 ± 0.009	0.0847 ± 0.024	0.129 ± 0.016	0.106 ± 0.016

Sequence	protein stability index (Saccharomyces cerevisiae [1]; [3])	protein stability index (Saccharomyces cerevisiae [1]; [4])	protein stability index (Saccharomyces cerevisiae [1]; [5])	protein stability index (Saccharomyces cerevisiae [1]; [6])	protein stability index (Saccharomyces cerevisiae [1]; [7])	protein stability index (Saccharomyces cerevisiae [1]; [8])	protein stability index (Saccharomyces cerevisiae [1]; [9])	protein stability index (Saccharomyces cerevisiae [2])
FCCSVFCFLCLY	0.562 ± 0.044	0.548 ± 0.02	0.505 ± 0.027	0.572 ± 0.0057	0.5442 ± 0.001	0.492 ± 0.0071	0.518 ± 0.019	0.504 ± 0.049
FCGLLGVCLVMG	0.208 ± 0.042	0.298 ± 0.006	0.243 ± 0.032	0.389 ± 0.013	0.185 ± 0.016	0.221 ± 0.03	0.354 ± 0.011	0.326 ± 0.032
FCHFSSLVSVSL	0.614 ± 0.011	0.6089 ± 0.0042	0.498 ± 0.024	0.6377 ± 0.0016	0.494 ± 0.021	0.496 ± 0.018	0.611 ± 0.025	0.577 ± 0.18
FCLLRYPFVGVL	0.625 ± 0.047	0.683 ± 0.025	0.554 ± 0.022	0.677 ± 0.025	0.272 ± 0.0032	0.318 ± 0.0089	0.514 ± 0.0069	0.415 ± 0.013
FCSNLLSMVIAV	0.344 ± 0.0055	0.382 ± 0.014	0.32 ± 0.032	0.4315 ± 0.0038	0.265 ± 0.012	0.3 ± 0.012	0.438 ± 0.029	0.432 ± 0.014
FCVGVLFSCLVF	0.338 ± 0.041	0.412 ± 0.032	0.313 ± 0.021	0.4295 ± 0.0031	0.286 ± 0.0042	0.301 ± 0.019	0.43 ± 0.023	0.394 ± 0.019
FCVGVVIQLSGV	0.435 ± 0.053	0.491 ± 0.034	0.311 ± 0.035	0.499 ± 0.0053	0.296 ± 0.0032	0.326 ± 0.021	0.473 ± 0.014	0.415 ± 0.0067
FCVLLFYCFFFF	0.322 ± 0.011	0.322 ± 0.099	0.276 ± 0.039	0.38 ± 0.0096	0.314 ± 0.012	0.273 ± 0.032	0.335 ± 0.041	0.356 ± 0.03
FERKVHSRWLFF	0.56888 ± 0.00051	0.745 ± 0.022	0.658 ± 0.011	0.7407 ± 0.00086	0.0981 ± 0.019	0.15 ± 0.016	0.437 ± 0.018	0.23 ± 0.038
FFATFVPSFLLC	0.606 ± 0.023	0.674 ± 0.048	0.556 ± 0.02	0.6776 ± 0.00086	0.268 ± 0.0089	0.305 ± 0.022	0.511 ± 0.021	0.407 ± 0.033
FFCYFFEFFICG	0.326 ± 0.054	0.419 ± 0.013	0.339 ± 0.028	0.468 ± 0.0082	0.337 ± 0.015	0.323 ± 0.011	0.441 ± 0.025	0.382 ± 0.017
FFFVFLGLRSVF	0.348 ± 0.019	0.358 ± 0.084	0.357 ± 0.04	0.577 ± 0.11	0.339 ± 0.011	0.292 ± 0.016	0.434 ± 0.012	0.387 ± 0.049
FFGFFWLFLLFC	0.239 ± 0.022	0.222 ± 0.005	0.291 ± 0.021	0.364 ± 0.016	0.318 ± 0.019	0.202 ± 0.033	0.257 ± 0.02	0.267 ± 0.0029
FFIVGACAYVFA	0.223 ± 0.036	0.30494 ± 0.00019	0.228 ± 0.031	0.385 ± 0.0094	0.204 ± 0.013	0.231 ± 0.029	0.37 ± 0.015	0.319 ± 0.033
FFLLLVSVLSGW	0.177 ± 0.035	0.255 ± 0.047	0.198 ± 0.017	0.3301 ± 0.00052	0.152 ± 0.02	0.185 ± 0.029	0.2942 ± 0.00091	0.316 ± 0.038
FFPFHPHVLRLL	0.421 ± 0.044	0.433 ± 0.014	0.477 ± 0.039	0.6373 ± 0.0012	0.215 ± 0.0068	0.203 ± 0.026	0.324 ± 0.014	0.282 ± 0.053
FFRAYLQMYVTD	0.412 ± 0.0053	0.471 ± 0.021	0.413 ± 0.029	0.4057 ± 0.0032	0.423 ± 0.032	0.416 ± 0.043	0.412 ± 0.0073	0.362 ± 0.018
FFVFLVLFCLWV	0.278 ± 0.027	0.259 ± 0.065	0.302 ± 0.035	0.397 ± 0.008	0.321 ± 0.022	0.261 ± 0.031	0.356 ± 0.0055	0.391 ± 0.076
FFVFMAKLRTCN	0.455 ± 0.042	0.536 ± 0.034	0.444 ± 0.025	0.594 ± 0.0073	0.112 ± 0.019	0.127 ± 0.025	0.198 ± 0.029	0.0754 ± 0.063
